Source: patent publication US20180030136A1

Key:
[1] = molecular target: cynomolgus ICOS (cynomolgus); assay: Biacore, cyno ICOS
human ICOS (human) = human ICOS (human) (UniProt Q9Y6W8); assay: Biacore, human ICOS
Sequence of human ICOS (human) (Q9Y6W8 21-140 limits assumed): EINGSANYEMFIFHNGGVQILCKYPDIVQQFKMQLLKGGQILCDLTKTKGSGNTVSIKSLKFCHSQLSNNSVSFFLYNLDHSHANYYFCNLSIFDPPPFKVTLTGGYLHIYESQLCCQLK

B1: ICOS mAb clone 314.8 (antibody, from another filing, V domains shown)
VH: QVQLQQPGTELMKPGASVKLSCKASGYTFTTYWMHWVKQRPGQGLEWIGEIDPSDSYVNYNQNFKGKATLTVDKSSSTAYIQLSSLTSEDSAVYFCARSPDYYGTSLAWFDYWGQGTLVTVST
VL: DIVMTQAAPSVPVTPGESVSISCRSSKSPLHSNGNIYLYWFLQRPGQSPQLLIYRMSNLASGVPDRFSGSGSGTTFTLKISRVEAEDVGVYYCMQHLEYPYTFGGGTKLEIK
What does the source list for B1?
Kd [1]: 9.3 nM; Kd (human ICOS (human)): 17 nM
